Measurements taken from patent WO2013157102A1 (dated 2013).
Where a chain is given by its changes, count along the chain named.

B1: humanized antibody 1 (antibody, V domains shown)
VH: QVQLVESGGGVVQPGRSLRLSCSSSGFIFSNYGMSWVRQAPEKRLEWVATISNSGRYTYFPDSVKGRFTISRDNSKNTLFLQMDSLRPEDTGVYFCARHLDYANYDAMDYWGQGTPVTVSS
VL: DIVMTQSPNSLAVSLGERATINCRASKSVTTSDFSYMHWYQQKPGQPPKLLIYLASNLESGVPDRFSGSGSGTDFTLTISSLQAEDVAVYYCQHSREFPWTFGQGTKLEIK
notes: Expressed transiently in HEK293 cells and detected with anti-human IgG; also called VH-1 combined with VL-1; mucin subtype 5AC-specific humanized antibody
B2: humanized antibody 2 (antibody, V domains shown)
VH: EVQLLESGGGLVQPGGSLRLSCAASGFTFSNYGMSWVRQAPGKGLEWVSTISNSGRYTYFPDSVKGRFTISRDNSKNTLYLQMNSLRAEDTAVYYCAKHLDYANYDAMDYWGQGTLVTVSS
VL: DIVMTQTPLSSPVTLGQPASISCRASKSVTTSDFSYMHWLQQRPGQPPRLLIYLASNLESGVPDRFSGSGAGTDFTLKISRVEAEDVGVYYCQHSREFPWTFGQGTKVEIK
notes: Detected with anti-human IgG; also called VH-4 combined with VL-5; mucin subtype 5AC-specific humanized antibody
B3: humanized antibody 4 (antibody, V domains shown)
VH: B2 VH
VL: DIQMTQSPSSLAVSLGDRVTITCRASKSVTTSDFSYMHWYQQKPGLAPKLLIYLASNLESGVPSRFSGSGSGTDFTFTISSLQPEDIATYYCQHSREFPWTFGQGTKVEVK
notes: also called VH-4 combined with VL-3; mucin subtype 5AC-specific humanized antibody
B4: humanized antibody 9 (antibody, V domains shown)
VH: QVQLQESGPGLVRPSQSLKLTCTVSGSTFSNYGMSWVRQTPEKRLEWIGTISNSGRYTYFPDSVKGRVTMLVDTSKNQFSLQMSSVTAADTAVYYCARHLDYANYDAMDYWGQGSLVTVSS
VL: B2 VL
notes: Detected with anti-human IgG; also called VH-3 combined with VL-5; mucin subtype 5AC-specific humanized antibody
B5: humanized antibody 5 (antibody, V domains shown)
VH: B2 VH
VL: B3 VL with K43T, L46K, F75Y, V108L, E109Q, V110I, K111T
notes: Detected with anti-human IgG; also called VH-4 combined with VL-4; mucin subtype 5AC-specific humanized antibody
B6: humanized antibody 3 (antibody, V domains shown)
VH: B2 VH
VL: B3 VL with S10T, L46K, I52M, S67I, D74E, F77L, E85D, I87F
notes: Detected with anti-human IgG; also called VH-4 combined with VL-2; mucin subtype 5AC-specific humanized antibody
B7: humanized antibody 7 (antibody, V domains shown)
VH: B2 VH with L5V, L11V, Q13R, S30D, S75A, T78S, V93L, Y95H, K98R
VL: B2 VL
notes: Detected with anti-human IgG; also called VH-6 combined with VL-5; mucin subtype 5AC-specific humanized antibody
B8: humanized antibody 6 (antibody, V domains shown)
VH: B2 VH with L5V, Q13K, S75A, T78S, K98R
VL: B2 VL
notes: Detected with anti-human IgG; also called VH-5 combined with VL-5; mucin subtype 5AC-specific humanized antibody
B9: humanized antibody 10 (antibody, V domains shown)
VH: B2 VH
VL: B2 VL with S11L, P12S, L15P, L40Y, Q41L, R43K, R49Q, A71S
notes: Detected with anti-human IgG; also called VH-4 combined with VL-7; mucin subtype 5AC-specific humanized antibody
B10: mucin subtype 5AC-specific mouse antibody (antibody, V domains shown)
VH: EVKLVESGGVLVKSGGSLKLSCAVSGFTFSNYGMSWVRQTPEKRLEWVATISNSGRYTYFPDSVKGRFAISRDNAKNNLYLQMSSLRSADTALYYCTRHLDYANYDAMDYWGQGTSVTVSS
VL: DIVLTQSPASLAVSLGQRATISCRASKSVTTSDFSYMHWYQQKPGQPPKLLLYLASNLESGVPDRFSGSGSGTDFTLNIHPVEEEDAATYYCQHSREFPWTFGGGTKLEIK
notes: Detected with anti-mouse IgG

target: T1, mucin subtype 5AC expressed on BxPC3 cells (human, UniProt P98088 28-5654); experiment: flow cytometry on BxPC3 cells expressing mucin subtype 5AC, 20 ug/mL antibody, Alexa Fluor 488 anti-human IgG
T1 construct: whole, on cells; also called mucin 5AC; MUC5AC

Binding result, binds:
B1, B2, B3, B4, B5, B6, B7, B8, B9

target: T1, mucin subtype 5AC expressed on BxPC3 …; experiment: flow cytometry on BxPC3 cells expressing mucin subtype 5AC, 20 ug/mL antibody, Alexa Fluor 488 anti-mouse IgG; mouse antibody is the positive reference

Binding result, binds:
B10
